According to the supplement of paper PMC10724198:

How the values were obtained:
Saccharomyces cerevisiae [1] = experiment: protein stability index of tFT-peptide fusion in wild type (PSI (0-1 scale)); higher = more stable (slower turnover); conditions: genetic background: wild type
Procedure: (§1)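 MPS profiling in S. cerevisiae of two library types built from selected 12-aa C-degron peptides (IN1, IN2, LN1, LN3, VN2, R1-R5, W1-W3, Atg1 and Rpa12 C-termini): saturation mutagenesis libraries and C-terminal +1 capping libraries (13 aa). Each peptide is fused to the C-terminus of a sfGFP-mCherry timer, after a GGGS linker. Cells are FACS-sorted into 8 mCherry/sfGFP bins and sequenced. PSI runs from 0 (unstable) to 1 (stable), measured once in wild type and in the das1Δ or doa10Δ background.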

Saccharomyces cerevisiae [2] = experiment: protein stability index of tFT-peptide fusion in deletion strain of DOA10 (PSI (0-1 scale)); higher = more stable (slower turnover)
Procedure: as §1

Saccharomyces cerevisiae [3] = experiment: protein stability index of tFT-peptide fusion in deletion strain of DAS1 (PSI (0-1 scale)); higher = more stable (slower turnover)
Procedure: as §1
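Throughout, for protein stability index of tFT-peptide fusion in deletion strain of DAS1: PSI is a weighted mean of each variant's read distribution over the sorted stability bins, computed only for variants having over 10 reads in total.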
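Throughout, for protein stability index of tFT-peptide fusion in deletion strain of DOA10: PSI per variant is the weighted mean of its sequencing read distribution over the sorted stability bins, counting only variants with over 10 reads summed across bins.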
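Throughout, for protein stability index of tFT-peptide fusion in wild type: PSI derived as read-weighted mean over the 8 sorting bins, only variants exceeding 10 total reads kept, mCherry placed adjacent to the peptide and sfGFP distal.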

Row | Sequence | protein stability index (Saccharomyces cerevisiae [1]) | protein stability index (Saccharomyces cerevisiae [2]) | protein stability index (Saccharomyces cerevisiae [3])
1 | AITCPMCPLLLR | 0.297 | 0.643 | 
2 | AITLCMCPLLLR | 0.487 | 0.665 | 
3 | AITLDMCPLLLR | 0.346 | 0.68 | 
4 | AITLMMCPLLLR | 0.302 | 0.612 | 
5 | AITLPMCLLLLR | 0.116 | 0.629 | 
6 | AITLPMCPLLLRA | 0.171 | 0.3 | 
7 | AITLPMCPLLLRC | 0.0981 | 0.381 | 
8 | AITLPMCPLLLRS | 0.261 | 0.554 | 
9 | AITLPMCPLLLRT | 0.169 | 0.441 | 
10 | AITLPMCPPLLR | 0.546 | 0.663 | 
11 | AITLPMCRLLLR | 0.27 | 0.651 | 
12 | AITLPMCSLLLR | 0.212 | 0.656 | 
13 | AITLPMCTLLLR | 0.116 | 0.675 | 
14 | AITLPMFPLLLR | 0.16 | 0.638 | 
15 | AITLPMGPLLLR | 0.186 | 0.688 | 
16 | AITLPMKPLLLR | 0.297 | 0.659 | 
17 | AITLPVCPLLLR | 0.229 | 0.652 | 
18 | AITLPWCPLLLR | 0.153 | 0.662 | 
19 | AITLVMCPLLLR | 0.547 | 0.679 | 
20 | AITMPMCPLLLR | 0.285 | 0.677 | 
21 | AITTPMCPLLLR | 0.462 | 0.668 | 
22 | AITWPMCPLLLR | 0.226 | 0.7 | 
23 | AMTLPMCPLLLR | 0.223 | 0.646 | 

Row | Sequence | protein stability index (Saccharomyces cerevisiae [1]) | protein stability index (Saccharomyces cerevisiae [2]) | protein stability index (Saccharomyces cerevisiae [3])
24 | APTLPMCPLLLR | 0.29 | 0.664 | 
25 | ASTLPMCPLLLR | 0.408 | 0.668 | 
26 | PDKRNHLIKLLS | 0.102 |  | 0.653
27 | PDKRNHLTKLLN | 0.17 |  | 0.584
28 | PDKRNHSIKLLN | 0.174 |  | 0.631
29 | PDKRNHTIKLLN | 0.176 |  | 0.582
30 | PDKRNLLIKLLN | 0.124 |  | 0.608
31 | PDKRNNLIKLLN | 0.155 |  | 0.589
32 | PDKRNSLIKLLN | 0.163 |  | 0.723
33 | PDKRNTLIKLLN | 0.108 |  | 0.599
34 | PDKVNHLIKLLN | 0.129 |  | 0.658
35 | PLKRNHLIKLLN | 0.135 |  | 0.622
36 | PPLAASFWRVVG | 0.165 |  | 0.673
37 | PQKRNHLIKLLN | 0.113 |  | 0.597
38 | PSCAASFWRVVG | 0.154 |  | 0.691
39 | PSEAASFWRVVG | 0.175 |  | 0.702
40 | PSLAANFWRVVG | 0.159 |  | 0.689
41 | PSLAASAWRVVG | 0.155 |  | 0.666
42 | PSLAASFWEVVG | 0.697 |  | 0.712
43 | PSLAASFWRCVG | 0.144 |  | 0.674
44 | PSLAASFWRVSG | 0.205 |  | 0.684
45 | PSLAASFWRVVGE | 0.672 |  | 0.668
46 | PSLAASFWRVVGG | 0.651 |  | 0.682

Row | Sequence | protein stability index (Saccharomyces cerevisiae [1]) | protein stability index (Saccharomyces cerevisiae [2]) | protein stability index (Saccharomyces cerevisiae [3])
47 | PSLAASFWRVVGM | 0.679 |  | 0.703
48 | PSLAASFWRVYG | 0.174 |  | 0.691
49 | PSLAASHWRVVG | 0.158 |  | 0.692
50 | PSLAASNWRVVG | 0.22 |  | 0.692
51 | PSLAASQWRVVG | 0.184 |  | 0.668
52 | PSLEASFWRVVG | 0.121 |  | 0.673
53 | PSLKASFWRVVG | 0.147 |  | 0.678
54 | PSLMASFWRVVG | 0.131 |  | 0.707
55 | PSLWASFWRVVG | 0.103 |  | 0.697
56 | PWLAASFWRVVG | 0.0915 |  | 0.717
57 | QRWRVGLWRGAS | 0.345 |  | 0.683
58 | RKHKKGQKQKIN | 0.121 |  | 0.574
59 | RLAQPLPVQFLN | 0.0466 |  | 0.566
60 | RLFQPLPVQFLN | 0.034 |  | 0.658
61 | RLIGPLPVQFLN | 0.0842 |  | 0.598
62 | RLIQCLPVQFLN | 0.0457 |  | 0.571
63 | RLIQELPVQFLN | 0.061 |  | 0.616
64 | RLIQLLPVQFLN | 0.0564 |  | 0.635
65 | RLIQPEPVQFLN | 0.215 |  | 0.61
66 | RLIQPLNVQFLN | 0.0919 |  | 0.575
67 | RLIQPLPGQFLN | 0.282 |  | 0.612
68 | RLIQPLPVMFLN | 0.0639 |  | 0.564
69 | RLIQPLPVQELN | 0.525 |  | 0.703

Row | Sequence | protein stability index (Saccharomyces cerevisiae [1]) | protein stability index (Saccharomyces cerevisiae [2]) | protein stability index (Saccharomyces cerevisiae [3])
70 | RLIQPLPVQFIN | 0.0372 |  | 0.583
71 | RLIQPLPVQFLNF | 0.462 |  | 0.659
72 | RLIQPLPVQFPN | 0.622 |  | 0.605
73 | RLIQPLPVQMLN | 0.0702 |  | 0.606
74 | RLIQPLPVQTLN | 0.163 |  | 0.68
75 | RLIQPLPVQWLN | 0.0664 |  | 0.641
76 | RLIQPLPVYFLN | 0.0711 |  | 0.729
77 | RLMQPLPVQFLN | 0.1 |  | 0.572
78 | RLRQPLPVQFLN | 0.0588 |  | 0.593
79 | RLTQPLPVQFLN | 0.0562 |  | 0.857
80 | RSIQPLPVQFLN | 0.0915 |  | 0.643
81 | RSLAASFWRVVG | 0.117 |  | 0.689
82 | TKILRQKMNHQN | 0.148 |  | 0.67
83 | TVVYLSCVACIN | 0.0176 |  | 0.0307
84 | VDKRNHLIKLLN | 0.105 |  | 0.609
85 | VKGAVGGWRLVG | 0.149 |  | 0.691
86 | VQGAVGGWRLVG | 0.14 |  | 0.708
87 | VRAAVGGWRLVG | 0.14 |  | 0.681
88 | VREAVGGWRLVG | 0.143 |  | 0.676
89 | VRGAIGGWRLVG | 0.157 |  | 0.684
90 | VRGAVGCWRLVG | 0.162 |  | 0.69
91 | VRGAVGGDRLVG | 0.609 |  | 0.68
92 | VRGAVGGNRLVG | 0.681 |  | 0.67

Row | Sequence | protein stability index (Saccharomyces cerevisiae [1]) | protein stability index (Saccharomyces cerevisiae [2]) | protein stability index (Saccharomyces cerevisiae [3])
93 | VRGAVGGPRLVG | 0.661 |  | 0.669
94 | VRGAVGGWHLVG | 0.286 |  | 0.671
95 | VRGAVGGWRDVG | 0.606 |  | 0.629
96 | VRGAVGGWRKVG | 0.133 |  | 0.68
97 | VRGAVGGWRLKG | 0.607 |  | 0.673
98 | VRGAVGGWRLVF | 0.564 |  | 0.677
99 | VRGAVGGWRLVGK | 0.651 |  | 0.667
100 | VRGAVGGWRLVGP | 0.664 |  | 0.671
101 | VRGAVGGWRLVGV | 0.649 |  | 0.659
102 | VRGAVGGWRLVV | 0.16 |  | 0.675
103 | VRGAVGGWRMVG | 0.155 |  | 0.685
104 | VRGAVGGWRTVG | 0.157 |  | 0.674
105 | VRGAVGPWRLVG | 0.138 |  | 0.687
106 | VRGAVGRWRLVG | 0.159 |  | 0.669
107 | VRGAVGTWRLVG | 0.171 |  | 0.694
108 | VRGAVLGWRLVG | 0.146 |  | 0.677
109 | VRGAVWGWRLVG | 0.108 |  | 0.649
110 | VRGMVGGWRLVG | 0.161 |  | 0.683
111 | VRGTVGGWRLVG | 0.151 |  | 0.705
112 | VRVAVGGWRLVG | 0.111 |  | 0.652
113 | VWGAVGGWRLVG | 0.134 |  | 0.692
114 | WKHKKGQKQKIN | 0.135 |  | 0.546
115 | WSMRWTFRYWVN | 0.0469 |  | 0.48
